The test system of one experiment is LPS. The experiment in a line: endotoxemia LPS-induced sepsis model, survival. The format is in vivo, Balb/c mice. Conditions: 1 mg/kg or 5 mg/kg, 24 hours prior to LPS, vs control IgG (R347). The procedure: In order to determine the protective effect of anti-O1 antigen antibodies, female mice (Balb/c), aged 6-8 weeks, were sensitized with D-galactose (D-Gal, 12 mg/kg), and subsequently challenged intraperitoneally (ip) with 10-50 ng of LPS 24 hours after anti-O1 antigen antibody administration. Antibody was administered at doses of 0.2 mg/kg, 1 mg/kg, or 5 mg/kg. Mouse survival was monitored up to 6 days post LPS challenge.

In another experiment the test system is purified O1 LPS. As to the kind of experiment: Fortebio Octet competitive binding on O1 LPS. Conditions: 10 μg/mL, probe pre-bound with KPE33. More on the design: species or system Klebsiella pneumoniae. The procedure:
Briefly, after initial binding with 10 μg/mL KPE33, the probe was incubated with antibody mixtures containing 10 μg/mL KPE33 with equal concentrations of 54H7, KPE33, or the control antibody R347.
(Biolayer interferometry detects binding as a change in optical thickness at a sensor tip.)

Experiment [1] relates to K. pneumoniae strain Kp8045 (O1:K1). As to the kind of experiment: intranasal lung infection model, lung bacterial burden. It is filed as in vivo, Klebsiella pneumoniae. Conditions: C57BL/6 mice, 15 mg/kg, CFU 48 hours post infection. As for the experimental part: The ability of anti-O1 antigen antibodies to reduce organ burden was tested in bacterial infection models. In these experiments, C57BL/6 mice were received from Jackson laboratories and maintained in a special pathogen free facility. All animal experiments were conducted in accordance with IACUC protocol and guidance. K. pneumoniae strains were grown on agar plates overnight and diluted in saline at proper concentration. The inoculum titer was determined by plating a serial dilution of bacteria onto agar plates prior to and post challenge.
Antibodies and controls at 15 mg/kg were administered 24 hours prior to bacterial infection. C57BL/6 mice were inoculated with 1e4 CFU Kp8045 (O1:K1) bacteria in 40 μl saline intranasally to induce pneumonia. The lung bacterial burden was measured by plating lung homogenates onto agar plates to determine CFU 48 hours post infection.

The test system of experiment [2] is clinical Klebsiella strains. As to the kind of experiment: western blot binding to clinical isolates. As for the experimental part: In order to determine if anti-O1 antigen antibodies bind to clinically relevant Klebsiella strains, the binding of KPE33 to clinical isolates was determined by western blot assay. The ability of KPE33 to bind to all of these strains as well as its ability to protect against four different strains in vivo indicate that KPE33 can kill many clinically relevant Klebsiella strains.
On the technique in general: Immunoblotting shows a protein as a band on a membrane.

In a further experiment the test system is Kp8045 Klebsiella. The experiment in a line: pneumonia model, KPE33 synergy with meropenem. It is filed as in vivo, Klebsiella pneumoniae. Conditions: antibody 1 mpk, meropenem 2.5 mpk, post challenge. As for the experimental part:
(§1) The synergy of anti-O1 antigen antibodies and antibiotic was also assessed in the pneumonia and bacteremia mouse models.
(§2) In the pneumonia experiments, C57BL/6 mice were inoculated intranasally with 1e4 to 1e8 CFU of the Kp8045 Klebsiella. (See FIG. 4A.) In the bacteremia experiments, mice were inoculated with Kp8561 Klebsiella. (See FIG. 4B.) Both sub-therapeutic dosage of antibodies (1 mpk for Kp8045 and 2.5 mpk for Kp8561) and meropenem antibiotic (2.5 mpk for Kp8045 and 5 mpk for Kp8561) were administered post bacterial challenge. Mouse survival was monitored daily until up to day 8.

For another experiment, the system named is Kp8561 Klebsiella. The experiment in a line: bacteremia model, KPE33 synergy with meropenem. The format is in vivo, Klebsiella pneumoniae. Conditions: antibody 2.5 mpk, meropenem 5 mpk, post challenge. As for the experimental part: as §1, §2
Experiment [3] deals with K. pneumoniae and S. aureus SF8300 (USA300). The experiment in a line: K. pneumoniae and S. aureus co-infection pneumonia model. The format is in vivo, Klebsiella pneumoniae and Staphylococcus aureus. Conditions: C57BL/6 mice, 0.5 mL ip, 24 hours prior to co-infection. The procedure: In order to evaluate the efficacy of anti-O1 antigen antibodies in co-infection, female 7-8 week old C57BL/6 mice were briefly anesthetized in 3% Isoflurane and 50 μl of bacterial suspension was placed on the nares. Animals were inoculated with 5e7 CFU S. aureus SF8300 (USA300) alone or in combination with 1.5e2 CFU of K. pneumoniae and monitored up to 7 days for survival studies. For organ burden studies, lungs and spleens were harvested at 24 or 48 hours post challenge as described in Example 5 above. For protection studies, mice were passively immunized (0.5 mL, ip) with KPE33 or control mAb before lethal bacterial challenge. All data were plotted in Prism.

B1: 54H7: mouse hybridoma anti-O1 antigen antibody (Ms IgG3), VH SEQ ID NO:47, VL SEQ ID NO:48 (antibody, V domains shown)
VH: QVHLQQPGSELVRPGASVTLSCKASGYTFTNYWMQWVKQRPGQGLEWIGNIYPGSGNTNYDEKFRSKATLTVDTSSSTAYMHLTSLTSEDSAVYYCTRNWNFDYWGQGTTLTVSS
VL: DIQMTQSPSSLSASLGERVSLTCRASQDIGSSLNWLQQEPDGTIKRLIYATSSLDSGVPKRFSGSRSGSEYSLTISSLEAEDFVDYYCLQHTDSPYTFGGGTKLELK
modifications: 54H7 VH; 54H7 VL Amino Acid Sequence
With B1, in the experiment on LPS, the “survival, endotoxemia model” value was “protects mice”. Further, in the experiment on purified O1 LPS, the “additional binding after initial binding of KPE33” value is “able to show additional binding”.

B2: KPE33: human anti-K. pneumoniae O1 antigen antibody, VH SEQ ID NO:8, VL SEQ ID NO:9, isolated as IgG2 from donor #262 (antibody, V domains shown)
VH: EVQLVESGGALVQPGGSLRLSCAVSGFIFDDYAIHWVRRAPGKGLEWVSGIAWKSGATNYADSVKGRFAISRDNSKKSMYLQMNSLGTEDTALYYCTRRRASGDDTFYYFDYWGQGTLVTVSS
VL: EIVLTQSPATLSLSPGERATLSCRASQNVNTNLAWYQQRPGQSPRLLIYDASTRAAGLPARFSGSGSGTDFTLTISSLEPEDFAVYYCQQCTNWRYTFGQGTKLEIK
modifications: KPE33 VH Amino Acid Sequence; KPE33 VL Amino Acid Sequence
With B2, the lung bacterial burden entry in experiment [1] is listed as “significantly reduced organ burden”. Besides, the “binding to clinical isolates” value in experiment [2] (Table 8) was “binds not only to a large and diverse group of clinical strains, but also to antibiotic resistant clinically relevant strains”. For the same molecule, the “binding of KPE33 to clinical Klebsiella strains” value in experiment [2] (clinical isolates listed in Table 8 (rows 1-36 CRE, rows 37-134 ESBL, rows 135-184 antibiotic-susceptible)) was “Summary of clinical Klebsiella strains which KPE33 binds”. Also, in the experiment with Kp8045 Klebsiella, the “survival, combination with meropenem, pneumonia Kp8045” value was “significant synergy and better protection than monotherapy”. In addition, the “survival, combination with meropenem, bacteremia Kp8561” value in the experiment with Kp8561 Klebsiella was “significant synergy and better protection than monotherapy”. Besides, the “survival in lethal co-infection” value in experiment [3] is “rescued the mice”.

Values taken from US12018068B2, “Anti-O1 antibodies and uses thereof” (priority 2016, dated 2024).
